Data reported in the domain aggregation screens of Martell et al. (2025).

Test: soluble fraction after stress (log2 fold change); higher = more stays soluble; pooled small domains, quantitative proteomics
Conditions: stress: 75 degC
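Also: 20 min heating vs room temperature control held 20 min.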

Sequence	soluble fraction (log2)
HMNLVELKHAEEFNTLIIQDIGGRMKPAHTLASELVRKVFHNDDFNGIDPRKVFLSIIENSKVWFNVPFI	0.0116
HMNLYENLATHVKNAIRQGVYQPGDRLPSVRRLSEQHRVSQNTAVSAYRLLESHGWLEARPQSGFFARHP	-1.42
HMNLYERFPIHELWKETFNETLDEEEHITFITSEFKPENIVLGQGFIAAPSKKDAVDWLKVIRTVLIFYDS	-2.37
HMNMANFARIRLILELHDRGMSQDEISRSRHMSRSTITTVLRTARKKGITYAGIRKLDDAALQKLFFPDR	-4.02
HMNMDLGHSISKLRTDANLTQEKFAQILNVSRQTVQKWEYGEALPDIHNIIKIAKFFNISLDALVLRS	-3.02
HMNMIGDVIRNLRTVSSMTQTELGQRMGVIKQTISNWEKNISTPSIDAIVKLSSIFNVPTDYLL	-1.22
HMNMMESNLFAVYDNDDIVKTLRQGAMEIDSLIRLMGKSSAEVLEKLTTMELQGIITRSGNIIALNN	-0.427
HMNMNDIKFGKYLKRVRKKYNFSKEYVANILKVKESLVSDWESGRLTLNDEYMEKLSLFYGVNLYKK	-1.57
HMNMPDVTVEWVKEQQAKFGLTDSDLAKSVNIDNANLARIFNQRGLTKIHKALFYYFFRAYGLQ	-3.33
HMNMRVLSEQPNKKSYQDGNLRLKVFGASFKKSDILNEALNQARVEETGLQIPKLLEVKQIDGQWTIVTE	-0.0583
HMNMVSGHLQVKKGYYYAVLSFYDSKNKRHVKYISTGLPEKGNKRKAEAELVKIRNAFEPPAE	-0.516
HMNNESEGAIMLRQYSSLSAYLTKYNIDVNSKKAQQYASSLKLAQEKGSAEGQKYLSSISSELDD	-0.205
HMNNIIEQIKADIKKLEEKLDKSSENALNKLEKDYSSLSTESKKKLDDAGYGARIKALRVKFAALSTQ	-0.0452
HMNNISKKIKELREQNNITQNKLANDLFIKQQTVAQWENGSRALKADSIISLAKYFNVSTDYLLGLTEN	-0.898
HMNNLKTKELSKIGYTNDKARSLVISIIPKHFKYHSKSEIIELLTNIKNKPEDYVSDEILGKIAETFMEKI	-1.23
HMNNLSEELNVTFPRTRDQLLNILHYVQHKYGYISKVSMQEIGNHIKMPVSEIYGTVTSYSEFKI	-2.25
HMNNLTEEAINHLVLEVKNVLLTDALFLGKATDSQLMLRIKETIDQRNGQYNIGMNDRERIARRVFARLR	-2.19
HMNNLVGKTKVLKSNTNIYAYKTMSGKFYSYLPNTRVRVLQDLGYINYIEVIATKRRGYVYENVY	-0.234
HMNNNIFVYPNPSINYINIDSDEEIWKLEIIQMSGEKINILPFSKRIDISFLSKGLYILNFNNYYIKFIK	-0.136
HMNNQIFGLKFRQLRKQQHITLAKAAAGITSRQSLGNWETGKGELAFEKVLLLLKKINVQPIDFLESSIS	-3.9
HMNNQILYERLRDLRERNHFTQAFVSSKLNIGRATYSNYERGKRTPSLDVIMDLASFYKVPFTYF	0.0974
HMNNQMTFSKFLNEVDAGRVVEVEIQGNNIKGVLADGNRFNTFSPNYPNLVEKLSDKGVSITAAPK	0.174
HMNPASVLDGLKITSFSPTRAIVAGPGGSRIVFDNEAVVLGGIEWDVHIQRNGIEFTSQGQTVLLLFDRS	-2.35
HMNPDDEMLLTYLTKLLVDKQFIVNSNDIFEYILRRVDRTYDGIYDIVSKLDVLSLEKKRQLTIPLIKEI	0.288
HMNPETIHNDYKAFIKFAFSGLSYYSKVWNQNREMITPGLLETLWQKYRHLSIGEIETILEKIIKEG	-2.38
HMNPGNTESFPVYQKRLGEIIQTLAGKKGQDINSPEVKELVGEYDFLTKQMFQLPDATSMVMEIATAYRN	0.0725
HMNPKTELMVYLKKRDEWVASQILSDVLQVSTRTIRKFVKEINMDYQTENVILSSSKGYKLNQNLLSSL	-1.19
HMNPLPALLRYFRQKAGLTQQDVAAALSISRSGYANYEEGRNIPNIEQAIKLSELLNHDFLYAYTLSS	-2.53

Sequence	soluble fraction (log2)
HMNPNYIKKLREKNQLTQEYLAAQIGVSRPTYAQIEQGQRGLTVTEAKKMADIFSLALDDFLAEKN	-0.135
HMNPSIALHDWLQSSEFKGSINLFAAALGMNPRTVEAWVYGRSTPSRRFWAKLYQITNLSRFRL	-1.08
HMNPYLWQRVRLLFSNVGVINNSATVDLVFSAPKGVLTEDLANNFSAALVKKGKEELGLDDIKITISVIPN	-3.67
HMNQADNFNSLTKREKDVLLLVTQGESNKSIADKLVLSEVTVKSHLNSIFKKLNVTNRTQAVLVAMQMNLV	-1.6
HMNQAIIVPDVKGLPLEEATTFFENNDLRYTVIDSVYTKDVPPGAIYEMVPGAGSKVKEGRIIFVTLNAR	-0.183
HMNQASLTYSEFIANVESKAITRVTISGDTISGILADGKPFQTIYPMADLELLPILRRSGVDINVKEVQ	-1.51
HMNQEIELLLREPDFTSAARLAMAINERFTNSARAIDPTSVKVRMPEGLDQASVDFVARLEDIEMSPDT	0.155
HMNQEQQSAVMSALKATLPDLEAALEARQFKESKQLLKTAQNQFQQLDGRNRRGFQARIQLLAGQFRELS	-0.179
HMNQIDDADRKRVVDEVAGQFSSMSLTEMRSDREKLLSRIIPQVQTTLNRLGLQTIDVEGIAREVIARVG	-0.0822
HMNQIFAPMPGLVLEVKLSEGDVVAEGESAIILEAMKMENIIKSPINGIVKKVHVKKGQTIEKNTLIISFK	-3.1
HMNQLSYTERRVLQVIEGGTTKTGEIEQALAAKMSRPTVHRALDALVGANRIHRLARGEYALGPAP	-0.501
HMNQRQKQLLSILEQQGDWMKGKALATLLAVSDRTIRSDIEKINREVEGSILSHPHKGYLLSVENRQIAET	0.107
HMNQSKYQTIADELKSKILSGEYPENTTIPPELQLQKDYQVSRHTIRQAIALLANEGFLRKEKGSGTYVDV	-0.147
HMNQTTYTVLYSGMDPADTGKVLTALNEMGVDARTQGEDTVLVPADRADEIRLELAAQGYPTS	0.06
HMNQYIFVLNEKGARITSFVDNTIPKEELIALAKQDYPNAADYIYSADGDSMLDEFMRGKLYVNGQFVAA	-0.843
HMNREIVVYITGAVDNPGLYRLPLDSRLDDVLKLAVLSTNADREVLNPAQKLKDGQKIVVPYIVE	-0.49
HMNRGITVIVNNEEIKMKEKAQYVVVDIFDYIDFDLTVPKGSINITLNGENTPYTASIKDGDVIEVFW	-1.09
HMNRIARRELMEQLFADNKITTQEQLQQLLRAEGVEVTQATISRDMRILNIVKVSDQNGNTYYKQMK	-0.171
HMNRIEMTEPIIIKDLSRETGIPWVAIQKRLAQDGIMANINTTIEAEKAQLIAVDYGIELAVV	-0.427
HMNRIGERIKRKRELRNLNLGELAEKVGISASALSQIEKSKSFPSVITLKSIAEQLRTTVGELIGEN	-0.191
HMNRIKIYPTPGSKVLSIENINFSLIHDFKILDIFGREVKNFTVSSEKNTKMLVDTSKLSDGLYFIFFNTF	-1.11
HMNRLEFLQGLKAELEGRVPHSIIQENLRYYDSYISDEAAKGQSEEDVVESLGGPRIIARTIVDAA	0.267
HMNRNEFMERLEYLLSDIPQEEKADAIAYYRDYLEEAGDDAGKAIQDFGSPERIAAMIRSELAG	-0.0288
HMNRQTGTVKWFNDAKGFGFITPESGPDLFVHFRSIQGAGFKSLQEGQRVTFVAVQGQKGMQADQVQA	-0.681
HMNRTKQIYNELLFRLDQGVYPPESKFPSESQLADEFSVSKVTMNKIVSMLASSGRLSRGVRGAGTFVSSP	-1.33
HMNRYPIQTEVHAFNDDIIKEAINFEMSRGGQIFFVNNRIPQLYELENTIHRLVPDARVVIGHGQMP	-0.216
HMNSFKIYPNPSSREVVRFNQAQDVKVYDTLGKLILSAKNTSAIDTKSFNTGIYFIKTANGLTKKLIV	-0.886
